Measured values taken from patent US20260055205A1 (published 2026).
Numbering of substitutions follows the chain as printed. Names and notes keep the numbering of the source.

B1: CD3.23-D (bispecific antibody, V domains shown)
VH: EVQLLESGGGIVQPGGSLKLSCAASGFTFNTYAMNWVRQAPGKGLEWVARIRSKYNNYATYYADSVKDRFTISRDDSKNTVYLQMNNLKTEDTAVYYCVRHENFGNSYVSWFAHWGQGTLVTVSS
VL: ELVVTQEPSLTVSPGGTVTLTCRSSNGAVTSSNYANWVQQKPGQAPRGLIGGTNKRAPGTPARFSGSLLGGKAALTLSGVQPEDEAVYYCALWYPNLWVFGGGTKLTVL
notes: paTCE with PSMA.5; also called AC3366; WT
B2: CD3.38 (bispecific antibody, V domains shown)
VH: B1 VH with W47D
VL: B1 VL
notes: paTCE with PSMA.5; also called AC3367; W47D
B3: CD3.39 (bispecific antibody, V domains shown)
VH: B1 VH with W47E
VL: B1 VL
notes: paTCE with PSMA.5; also called AC3368; W47E
B4: CD3.40 (bispecific antibody, V domains shown)
VH: B1 VH with V48A
VL: B1 VL
notes: paTCE with PSMA.5; also called AC3369; V48A
B5: CD3.41 (bispecific antibody, V domains shown)
VH: B1 VH with V48E
VL: B1 VL
notes: paTCE with PSMA.5; also called AC3370; V48E
B6: CD3.42 (bispecific antibody, V domains shown)
VH: B1 VH with V48G
VL: B1 VL
notes: paTCE with PSMA.5; also called AC3371; V48G
B7: CD3.43 (bispecific antibody, V domains shown)
VH: B1 VH with V48S
VL: B1 VL
notes: paTCE with PSMA.5; also called AC3372; V48S
B8: CD3.44 (bispecific antibody, V domains shown)
VH: B1 VH with V48T
VL: B1 VL
notes: paTCE with PSMA.5; also called AC3373; V48T
B9: CD3.45 (bispecific antibody, V domains shown)
VH: B1 VH with V48W
VL: B1 VL
notes: paTCE with PSMA.5; also called AC3374; V48W
B10: CD3.48 (bispecific antibody, V domains shown)
VH: B1 VH with A49G
VL: B1 VL
notes: paTCE with PSMA.5; also called AC3377; A49G
B11: CD3.54 (bispecific antibody, V domains shown)
VH: B1 VH with I51A
VL: B1 VL
notes: paTCE with PSMA.5; also called AC3383; I51A
B12: PSMA.315 (bispecific antibody, V domains shown)
VH: QVQLVESGGGVVQPGRSLRLSCAASGRTFGIYVMGWFRQAPGKEREFVGAISWSGSNRKVSDSVKGRFTISRDNSKNTLYLQMNSLRAEDTAVYYCAASNKEYGRTWYDFNESDYWGQGTQVTVSS
notes: TCE with CD3.23; also called AC3717
B13: PSMA.316 (bispecific antibody, V domains shown)
VH: B12 VH with E102G
notes: TCE with CD3.23; also called AC3718
B14: PSMA.317 (bispecific antibody, V domains shown)
VH: B12 VH with Y94A, A98G, E102L
notes: TCE with CD3.23; also called AC3719
B15: PSMA.318 (bispecific antibody, V domains shown)
VH: B12 VH with Y94R, A98G, E102L
notes: TCE with CD3.23; also called AC3720
B16: PSMA.319 (bispecific antibody, V domains shown)
VH: B12 VH with Y94N, A98G, E102L
notes: TCE with CD3.23; also called AC3721
B17: PSMA.320 (bispecific antibody, V domains shown)
VH: B12 VH with Y94G, A98G, E102L
notes: TCE with CD3.23; also called AC3722
B18: PSMA.321 (bispecific antibody, V domains shown)
VH: B12 VH with Y94K, A98G, E102L
notes: TCE with CD3.23; also called AC3723
B19: PSMA.322 (bispecific antibody, V domains shown)
VH: B12 VH with Y94S, A98G, E102L
notes: TCE with CD3.23; also called AC3724
B20: PSMA.323 (bispecific antibody, V domains shown)
VH: B12 VH with Y94T, A98G, E102L
notes: TCE with CD3.23; also called AC3725
B21: PSMA.324 (bispecific antibody, V domains shown)
VH: B12 VH with Y94A, Y95F, E102L
notes: TCE with CD3.23; also called AC3726
B22: PSMA.325 (bispecific antibody, V domains shown)
VH: B12 VH with Y94R, Y95F, E102L
notes: TCE with CD3.23; also called AC3727
B23: PSMA.326 (bispecific antibody, V domains shown)
VH: B12 VH with Y94N, Y95F, E102L
notes: TCE with CD3.23; also called AC3728
B24: PSMA.327 (bispecific antibody, V domains shown)
VH: B12 VH with Y94D, Y95F, E102L
notes: TCE with CD3.23; also called AC3729
B25: PSMA.328 (bispecific antibody, V domains shown)
VH: B12 VH with Y94G, Y95F, E102L
notes: TCE with CD3.23; also called AC3730
B26: PSMA.329 (bispecific antibody, V domains shown)
VH: B12 VH with Y94K, Y95F, E102L
notes: TCE with CD3.23; also called AC3731
B27: PSMA.330 (bispecific antibody, V domains shown)
VH: B12 VH with Y94S, Y95F, E102L
notes: TCE with CD3.23; also called AC3732
B28: PSMA.331 (bispecific antibody, V domains shown)
VH: B12 VH with Y95F, A97G, E102L
notes: TCE with CD3.23; also called AC3733
B29: PSMA.332 (bispecific antibody, V domains shown)
VH: B12 VH with Y95F, A98G, E102L
notes: TCE with CD3.23; also called AC3734
B30: PSMA.333 (bispecific antibody, V domains shown)
VH: B12 VH with Y95F, E102R
notes: TCE with CD3.23; also called AC3735
B31: PSMA.334 (bispecific antibody, V domains shown)
VH: B12 VH with Y95F, E102D
notes: TCE with CD3.23; also called AC3736
B32: PSMA.335 (bispecific antibody, V domains shown)
VH: B12 VH with Y95F
notes: TCE with CD3.23; also called AC3737
B33: PSMA.336 (bispecific antibody, V domains shown)
VH: B12 VH with Y95F, E102G
notes: TCE with CD3.23; also called AC3738
B34: PSMA.337 (bispecific antibody, V domains shown)
VH: B12 VH with Y94A, Y95F, A98G, E102L
notes: TCE with CD3.23; also called AC3739
B35: PSMA.338 (bispecific antibody, V domains shown)
VH: B12 VH with Y94R, Y95F, A98G, E102L
notes: TCE with CD3.23; also called AC3740
B36: PSMA.339 (bispecific antibody, V domains shown)
VH: B12 VH with Y94N, Y95F, A98G, E102L
notes: TCE with CD3.23; also called AC3741
B37: PSMA.340 (bispecific antibody, V domains shown)
VH: B12 VH with Y94G, Y95F, A98G, E102L
notes: TCE with CD3.23; also called AC3742
B38: PSMA.341 (bispecific antibody, V domains shown)
VH: B12 VH with Y94K, Y95F, A98G, E102L
notes: TCE with CD3.23; also called AC3743
B39: PSMA.342 (bispecific antibody, V domains shown)
VH: B12 VH with Y94S, Y95F, A98G, E102L
notes: TCE with CD3.23; also called AC3744
B40: PSMA.343 (bispecific antibody, V domains shown)
VH: B12 VH with Y94T, Y95F, A98G, E102L
notes: TCE with CD3.23; also called AC3745
B41: PSMA.345 (bispecific antibody, V domains shown)
VH: B12 VH with M34W, I51M, A97G, A98G, E102L
notes: TCE with CD3.23; also called AC3747
B42: PSMA.346 (bispecific antibody, V domains shown)
VH: B12 VH with M34W, I51M, Y94D, E102L
notes: TCE with CD3.23; also called AC3748
B43: PSMA.347 (bispecific antibody, V domains shown)
VH: B12 VH with M34W, I51M, A97G, E102L
notes: TCE with CD3.23; also called AC3749
B44: PSMA.349 (bispecific antibody, V domains shown)
VH: B12 VH with M34W, I51M, E102D
notes: TCE with CD3.23; also called AC3751
B45: PSMA.350 (bispecific antibody, V domains shown)
VH: B12 VH with M34W, I51M
notes: TCE with CD3.23; also called AC3752
B46: PSMA.351 (bispecific antibody, V domains shown)
VH: B12 VH with M34W, I51M, E102G
notes: TCE with CD3.23; also called AC3753
B47: PSMA.352 (bispecific antibody, V domains shown)
VH: B12 VH with M34W, I51M, Y94D, Y95F, E102L
notes: TCE with CD3.23; also called AC3754
B48: PSMA.353 (bispecific antibody, V domains shown)
VH: B12 VH with M34W, I51M, Y95F, A97G, E102L
notes: TCE with CD3.23; also called AC3755
B49: PSMA.355 (bispecific antibody, V domains shown)
VH: B12 VH with M34W, I51M, Y95F, E102D
notes: TCE with CD3.23; also called AC3757
B50: PSMA.356 (bispecific antibody, V domains shown)
VH: B12 VH with M34W, I51M, Y95F
notes: TCE with CD3.23; also called AC3758
B51: PSMA.357 (bispecific antibody, V domains shown)
VH: B12 VH with M34W, I51M, Y95F, E102G
notes: TCE with CD3.23; also called AC3759
B52: PSMA.358 (bispecific antibody, V domains shown)
VH: B12 VH with M34W, I51M, Y95F, A97G, A98G, E102L
notes: TCE with CD3.23; also called AC3760
B53: PSMA.359 (bispecific antibody, V domains shown)
VH: B12 VH with M34W, I51M, Y94R, A98G, E102L
notes: TCE with CD3.23; also called AC3761
B54: PSMA.360 (bispecific antibody, V domains shown)
VH: B12 VH with M34W, I51M, Y94N, A98G, E102L
notes: TCE with CD3.23; also called AC3762

What follows are binders tested against T1, human CD3 epsilon (human, UniProt P07766 23-126, limits assumed) (assay: Octet, crude lysate).
T1 construct: also called huCD3e
Description: To achieve this, Pool 1 was created, which included 74 paTCE molecules, each containing PSMA.5 and one of the 74 CD3.23 mutation variants. Single mutations were chosen based on analyses including CD3.23 PTE score analysis (using internal PTE algorithm v12) and structural analysis. Structural considerations included: possible contact disruption, anticipated steric clashes, side chain charge maintenance and possible pockets filling. Stability and affinity of the individually expressed molecules in the form of crude lysate was evaluated by Octet (ForteBio).

T1 sequence (P07766 23-126 limits assumed): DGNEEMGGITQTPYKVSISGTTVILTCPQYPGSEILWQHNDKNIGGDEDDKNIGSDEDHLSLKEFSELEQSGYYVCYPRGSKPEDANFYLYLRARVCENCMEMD

| Binder | Kd [nM] |
| --- | --- |
| B1 | 14 |
| B2 | 40.2 |
| B3 | 18.1 |
| B4 | 8.3 |
| B5 | 165 |
| B6 | 71.5 |
| B7 | 11.2 |
| B8 | 5.7 |
| B9 | 34300 |
| B10 | 4.5 |
| B11 | 1180 |

These binders were tested against T2, human PSMA (human, UniProt Q04609 44-750, limits assumed) (assay: binding screen).
T2 construct: also called huPSMA; hPSMA
T2 sequence (Q04609 44-750 limits assumed): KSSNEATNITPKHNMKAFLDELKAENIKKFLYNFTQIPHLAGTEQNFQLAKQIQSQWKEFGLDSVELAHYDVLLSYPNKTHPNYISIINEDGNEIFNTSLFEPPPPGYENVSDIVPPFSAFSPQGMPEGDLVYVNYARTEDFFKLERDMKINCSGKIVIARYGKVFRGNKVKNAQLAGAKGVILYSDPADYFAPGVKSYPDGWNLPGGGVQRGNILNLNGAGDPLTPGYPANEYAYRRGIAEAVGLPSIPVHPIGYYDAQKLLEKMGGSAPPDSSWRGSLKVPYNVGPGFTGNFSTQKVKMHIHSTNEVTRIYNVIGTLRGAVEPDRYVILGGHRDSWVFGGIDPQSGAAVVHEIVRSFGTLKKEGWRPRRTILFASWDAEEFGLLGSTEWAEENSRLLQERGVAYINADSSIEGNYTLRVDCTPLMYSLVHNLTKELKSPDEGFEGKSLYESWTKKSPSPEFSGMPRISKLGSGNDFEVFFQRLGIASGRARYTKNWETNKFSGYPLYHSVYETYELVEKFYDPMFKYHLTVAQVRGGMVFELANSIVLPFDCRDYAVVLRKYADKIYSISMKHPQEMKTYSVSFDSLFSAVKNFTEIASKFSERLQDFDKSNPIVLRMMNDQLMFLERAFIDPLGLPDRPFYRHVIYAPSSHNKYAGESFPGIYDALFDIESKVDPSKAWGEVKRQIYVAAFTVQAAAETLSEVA

| Binder | Kd [nM] | binding result |
| --- | --- | --- |
| B12 | 24.2 | – |
| B13 | 150 | – |
| B14 | – | no binding |
| B15 | – | no binding |
| B16 | – | no binding |
| B17 | – | no binding |
| B18 | – | no binding |
| B19 | – | no binding |
| B20 | – | no binding |
| B21 | – | no binding |
| B22 | – | no binding |
| B23 | – | no binding |
| B24 | – | no binding |
| B25 | – | no binding |
| B26 | – | no binding |
| B27 | – | no binding |
| B28 | 12.1 | – |
| B29 | 24.1 | – |
| B30 | – | no binding |
| B31 | 70.6 | – |
| B32 | 24.8 | – |
| B33 | 129 | – |

| Binder | Kd [nM] | binding result |
| --- | --- | --- |
| B34 | – | no binding |
| B35 | – | no binding |
| B36 | – | no binding |
| B37 | – | no binding |
| B38 | – | no binding |
| B39 | – | no binding |
| B40 | – | no binding |
| B41 | 6.1 | – |
| B42 | – | no binding |
| B43 | 7.3 | – |
| B44 | 18 | – |
| B45 | 7.4 | – |
| B46 | 32.6 | – |
| B47 | – | no binding |
| B48 | 5.1 | – |
| B49 | 17.8 | – |
| B50 | 7.8 | – |
| B51 | 24.6 | – |
| B52 | 6.5 | – |
| B53 | – | no binding |
| B54 | – | no binding |
